In US20200247855A1, “THERAPY AND DIAGNOSTICS” (OXFORD UNIVERSITY INNOVATION LIMITED, priority 2017, published 2020):
Read-outs that look alike come from different tables or passages of the source.

T1: CCL21_HUMAN (Homo sapiens, UniProt O00585)
T1 sequence (O00585 24-134): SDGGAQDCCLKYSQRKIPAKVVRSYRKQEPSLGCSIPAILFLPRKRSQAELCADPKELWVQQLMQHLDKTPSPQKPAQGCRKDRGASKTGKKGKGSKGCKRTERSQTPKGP

T2: CCL27_HUMAN (Homo sapiens, UniProt Q9Y4X3)
T2 sequence (Q9Y4X3 25-112): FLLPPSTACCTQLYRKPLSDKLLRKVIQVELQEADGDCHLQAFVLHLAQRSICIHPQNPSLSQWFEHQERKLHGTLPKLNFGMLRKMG

T3: CCL14_HUMAN (Homo sapiens, UniProt Q16627)
T3 sequence (Q16627 20-93): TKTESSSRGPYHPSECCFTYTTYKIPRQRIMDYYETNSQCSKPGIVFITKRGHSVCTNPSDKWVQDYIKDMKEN

T4: CCL15_HUMAN (Homo sapiens, UniProt Q16663)
T4 sequence (Q16663 22-113): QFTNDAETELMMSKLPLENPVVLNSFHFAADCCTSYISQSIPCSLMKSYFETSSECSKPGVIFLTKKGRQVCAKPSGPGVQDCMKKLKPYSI

T5: CCL16_HUMAN (Homo sapiens, UniProt O15467)
T5 sequence (O15467 24-120): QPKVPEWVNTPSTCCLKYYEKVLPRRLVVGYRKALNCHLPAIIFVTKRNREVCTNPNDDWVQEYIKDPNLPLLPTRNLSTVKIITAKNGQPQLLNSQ

T6: CCL3_HUMAN (Homo sapiens, UniProt P10147)
T6 sequence (P10147 24-92): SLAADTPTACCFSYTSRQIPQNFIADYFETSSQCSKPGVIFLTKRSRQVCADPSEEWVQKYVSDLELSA

T7: CCL8_HUMAN (Homo sapiens, UniProt P80075)
T7 sequence (P80075 24-99): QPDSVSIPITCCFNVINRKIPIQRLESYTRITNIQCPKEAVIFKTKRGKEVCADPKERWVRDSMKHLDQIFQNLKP

B1: EVASIN4: previously described tick CKBP evasin 4, from Rhipicephalus sanguineus (protein, listed as Rhipicephalus sanguineus)
chain: EVPQMTSSSAPDLEEEDDYTAYAPLTCYFTNSTLGLLAPPNCSVLCNSTTTWFNETSPNNASCLLTVDFLTQDAILQENQPYNCSVGHCDNGTCAGPPRHAQCW
B2: P672_RHIPU: tick CKBP, Rhipicephalus pulchellus (protein, listed as Rhipicephalus pulchellus)
chain: VCEVSEQEGVGEDNATEDEDYEDFFKPVTCYFANSTVGPLRPPNCTVVCTNNTAWWNDTKSDGGHCYSEYRPEKRTHSREIYNCTIGVCGNGTCIANHTYADCW
B3: P1243_AMBAM: tick CKBP, Amblyomma americanum; AAM-02 stated identical (protein, listed as Amblyomma americanum)
chain: RNHTEDNSTEYYDYEEARCACPARHLNNTNGTVLKLLGCHYFCNGTLCTAPDGYPCYNLTAQQVRTLTTYPNTSCAVGVCMKGTCVKNGTMEQCFKTP

What was measured:
CCL21_HUMAN = molecular target: T1, CCL21_HUMAN; conditions: data obtained from publications [20-22,32]; read-out: Kd, CCL21_HUMAN, previously described evasins; cited from earlier work
CCL11_HUMAN = CCL11_HUMAN (Homo sapiens, UniProt P51671); conditions: read-out: Kd, CCL11_HUMAN, previously described evasins; data obtained from publications [20-22,32]; cited from earlier work
CCL27_HUMAN = molecular target: T2, CCL27_HUMAN; conditions: data obtained from publications [20-22,32]; cited from earlier work
CCL14_HUMAN = molecular target: T3, CCL14_HUMAN; assay: Biolayer interferometry (BLI) binding
Summary of the method: (§1)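 Binding was measured by biolayer interferometry with the His-tagged tick protein bound to Ni-NTA sensors. A single-concentration screen used chemokine at 300 nM. Chemokines that bound were retested over multiple doses, and Kd was calculated from fitted curves.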

CCL15_HUMAN = molecular target: T4, CCL15_HUMAN; assay: Biolayer interferometry (BLI) binding
Summary of the method: as §1

CCL16_HUMAN = molecular target: T5, CCL16_HUMAN; assay: Biolayer interferometry (BLI) binding
Summary of the method: as §1

CCL3L1_HUMAN = CCL3L1_HUMAN (Homo sapiens, UniProt P16619); assay: Biolayer interferometry (BLI) binding
Summary of the method: as §1

CCL3_HUMAN = molecular target: T6, CCL3_HUMAN; assay: Biolayer interferometry (BLI) binding
Summary of the method: as §1

CCL7_HUMAN = CCL7_HUMAN (Homo sapiens, UniProt P80098); assay: Biolayer interferometry (BLI) binding
Summary of the method: as §1

CCL8_HUMAN = molecular target: T7, CCL8_HUMAN; assay: Biolayer interferometry (BLI) binding
Summary of the method: as §1

Sequence of CCL3L1_HUMAN (P16619 24-93): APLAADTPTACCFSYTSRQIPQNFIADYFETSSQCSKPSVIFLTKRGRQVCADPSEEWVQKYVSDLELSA
Sequence of CCL7_HUMAN (P80098 24-99): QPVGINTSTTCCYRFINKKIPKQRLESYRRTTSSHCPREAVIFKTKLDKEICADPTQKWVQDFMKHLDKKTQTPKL
Sequence of CCL11_HUMAN (P51671 24-97): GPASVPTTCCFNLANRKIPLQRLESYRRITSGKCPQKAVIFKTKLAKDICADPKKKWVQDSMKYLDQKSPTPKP

| Molecule | Kd (CCL21_HUMAN) | Kd (CCL11_HUMAN) | Kd, CCL27_HUMAN, previously described evasins (CCL27_HUMAN) | Kd (CCL14_HUMAN) | Kd (CCL15_HUMAN) | Kd (CCL16_HUMAN) | Kd (CCL3L1_HUMAN) | Kd (CCL3_HUMAN) | Kd (CCL7_HUMAN) | Kd (CCL8_HUMAN; read-out: Kd for CCL8) | Kd (CCL8_HUMAN; read-out: Kd, CCL8_HUMAN) |
| --- | --- | --- | --- | --- | --- | --- | --- | --- | --- | --- | --- |
| B1 | 0.01 nM | 0.34 nM | No Binding |  |  |  |  |  |  |  |  |
| B2 |  |  |  | 5.5 nM | 32 nM | 3.3 nM | 2.7 nM | 2.6 nM | 16 nM | 3.7 nM |  |
| B3 |  |  |  | 0.816 nM | 9.61 nM | 0.926 nM | 5.05 nM | 5.3 nM | 8.66 nM |  | 21.9 nM |
